The values that follow are results of earlier work, collected in paper PMC8227800.

Usually Kd stands for the equilibrium constant for the complex coming apart.

The series has as its target Cdh2 (Danio rerio) (UniProt Q90275).

For the substance Cdh2 (from UniProt Q90275), the Kd was 200 nM.
